Measurements from patent US20070087966A1.

Target: rat PRL receptor (PRL-R) on trigeminal ganglia neurons (rat) (UniProt P05710)
Test: cell-based or functional assay

rat PRL receptor (PRL-R) on trigeminal ganglia neurons (rat), sequence (P05710 20-610): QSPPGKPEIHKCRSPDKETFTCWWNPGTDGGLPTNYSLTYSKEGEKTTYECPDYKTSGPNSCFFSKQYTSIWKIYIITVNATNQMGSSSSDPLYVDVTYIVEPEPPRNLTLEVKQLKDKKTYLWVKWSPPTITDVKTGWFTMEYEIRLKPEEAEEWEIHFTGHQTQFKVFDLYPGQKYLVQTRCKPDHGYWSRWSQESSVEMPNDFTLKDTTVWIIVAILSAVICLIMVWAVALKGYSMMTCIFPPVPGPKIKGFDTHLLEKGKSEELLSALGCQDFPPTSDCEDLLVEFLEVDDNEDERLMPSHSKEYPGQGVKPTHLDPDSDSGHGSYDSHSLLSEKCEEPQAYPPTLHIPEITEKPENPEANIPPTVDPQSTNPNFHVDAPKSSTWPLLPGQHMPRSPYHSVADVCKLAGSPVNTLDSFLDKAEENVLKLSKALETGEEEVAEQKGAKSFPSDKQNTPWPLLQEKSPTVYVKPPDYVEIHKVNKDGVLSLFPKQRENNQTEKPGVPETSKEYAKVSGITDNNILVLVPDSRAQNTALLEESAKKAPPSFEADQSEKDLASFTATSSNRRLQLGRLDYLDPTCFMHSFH

Row | TRPV1 phosphorylation (32P incorporation) in TG neurons from intact female rats, PRL 40 nM for 10 min [%] | capsaicin-evoked Ca2+ influx in TG neurons from intact female rats (PRL 40 nM, 10 min) [%] | reduction of the PRL effect on Icap (G129R-PRL 16 nM with rPRL 4 nM) [%] | Substance | EC50 of sensitization of capsaicin-induced currents (Icap) in TG neurons from naive female rats [nM]
1 | 150 | 71 |  | Ovine PRL [oPRL-21, BIO] (from UniProt P01240 31-229) (ligand) | 0.27
2 |  |  | 40 | G129R-hPRL (ligand) | 
